{"source": "paper PMC7086394", "about": "(Bioconjugate Chemistry, 2020)", "biological_target": "T1, K3GW (acetylated N-terminus)", "T1 peptide": "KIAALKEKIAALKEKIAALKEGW", "experiment": "ITC", "note": "Where no end group is shown, it is not given here."}
{"binder": "Ac-EIAALEKEIAALEKEIAALEKGY", "note": "[E3GY]", "values": [{"measurement": "Kd", "value": 73, "unit": "nM"}, {"measurement": "dH", "value": -18.4, "unit": "kcal/mol"}]}
